Assays:
Experiment in all cases: SPR (Biacore)
cMet [1] = biological target: T1, cMet (UniProt P08581 25-932, limits assumed)
T1 construct: Antigen as used in Biacore

HER3 = biological target: T2, HER3 (UniProt P21860 20-643, limits assumed)
T2 construct: Antigen as used in Biacore; also called ErbB3

cMet [2] = biological target: T1, cMet; remark: listed apart in the source

T1 sequence (P08581 25-932 limits assumed): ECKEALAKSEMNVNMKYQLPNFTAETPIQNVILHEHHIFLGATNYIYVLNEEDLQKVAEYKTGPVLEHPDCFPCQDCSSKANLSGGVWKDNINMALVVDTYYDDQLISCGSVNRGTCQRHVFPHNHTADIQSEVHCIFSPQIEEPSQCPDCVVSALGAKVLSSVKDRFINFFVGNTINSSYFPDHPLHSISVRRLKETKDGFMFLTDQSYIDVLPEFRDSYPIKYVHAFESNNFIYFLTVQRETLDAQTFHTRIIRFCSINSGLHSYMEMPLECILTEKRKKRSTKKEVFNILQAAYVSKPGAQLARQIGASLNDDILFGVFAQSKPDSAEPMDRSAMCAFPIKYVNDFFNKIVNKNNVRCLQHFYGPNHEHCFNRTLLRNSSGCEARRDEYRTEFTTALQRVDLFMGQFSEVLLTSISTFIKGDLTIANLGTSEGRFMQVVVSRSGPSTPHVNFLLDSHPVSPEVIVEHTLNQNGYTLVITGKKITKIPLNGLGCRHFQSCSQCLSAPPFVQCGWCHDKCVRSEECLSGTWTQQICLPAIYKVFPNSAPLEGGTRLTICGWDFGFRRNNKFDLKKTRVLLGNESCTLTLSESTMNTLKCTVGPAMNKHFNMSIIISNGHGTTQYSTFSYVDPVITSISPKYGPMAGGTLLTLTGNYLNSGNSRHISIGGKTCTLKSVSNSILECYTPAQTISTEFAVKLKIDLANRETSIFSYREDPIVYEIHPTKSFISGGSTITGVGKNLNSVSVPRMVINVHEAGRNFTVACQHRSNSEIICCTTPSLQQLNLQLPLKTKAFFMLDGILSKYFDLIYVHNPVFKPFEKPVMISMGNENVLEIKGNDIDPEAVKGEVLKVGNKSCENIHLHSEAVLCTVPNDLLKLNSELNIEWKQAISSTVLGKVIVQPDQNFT

Kd (cMet [1]) | koff (cMet [1]) | kon (cMet [1]) | Kd (HER3) | koff (HER3) | kon (HER3) | fold reduced affinity against the Wildtype Fab (cMet [2]) | fold improved affinity against the restricted form (cMet [2]) | Binder
6.05 nM | 0.000188 s⁻¹ | 31200 M⁻¹ s⁻¹ | 2.05 nM | 0.000338 s⁻¹ | 165000 M⁻¹ s⁻¹ | – | – | Her3_MetSS_KHSS_FS1 (protease cleavage during expression) (bispecific antibody, Trivalent Her3-cMet bispecific: full length anti-Her3 IgG with knobs-into-holes, cMet dsFv (VHCys44/VLCys100) at the C-termini; Arg/Lys residues before the cleavage site were removed) heavy 1: not shown heavy 2: not shown ALGGGGSGGGGSDIQMTQSPSSLSASVGDRVTITCKSSQSLLYTSSQKNYLAWYQQKPGKAPKLLIYWASTRESGVPSRFSGSGSGTDFTLTISSLQPEDFATYYCQQYYAYPWTFGCGTKVEIKR light: DIQMTQTTSSLSASLGDRVTISCRARQDISNYLNWYQRKPDGTVKLLIYYTSRLHSGVPSRFSGSGSGTDYSLTISNLEQEDIATYFCQQGNTFPWTFGGGTKLEIKRTVAAPSVFIFPPSDEQLKSGTASVVCLLNNFYPREAKVQWKVDNALQSGNSQESVTEQDSKDSTYSLSSTLTLSKADYEKHKVYACEVTHQGLSSPVTKSFNRGEC
369 nM | 0.000197 s⁻¹ | 533 M⁻¹ s⁻¹ | 2.4 nM | 0.000414 s⁻¹ | 172000 M⁻¹ s⁻¹ | > 20 fold | – | Her3_MetSS_KHSS_PreSci (purified intermediate) (bispecific antibody, human IgG1, kappa, also called restricted dsFv module; double-tethered dsFv) heavy 1: not shown heavy 2: not shown light: DIQMTQTTSSLSASLGDRVTISCRARQDISNYLNWYQRKPDGTVKLLIYYTSRLHSGVPSRFSGSGSGTDYSLTISNLEQEDIATYFCQQGNTFPWTFGGGTKLEIKRTVAAPSVFIFPPSDEQLKSGTASVVCLLNNFYPREAKVQWKVDNALQSGNSQESVTEQDSKDSTYSLSSTLTLSKADYEKHKVYACEVTHQGLSSPVTKSFNRGEC
8.35 nM | 0.000203 s⁻¹ | 24300 M⁻¹ s⁻¹ | 2.02 nM | 0.000356 s⁻¹ | 176000 M⁻¹ s⁻¹ | – | > 30 fold | Her3_MetSS_KHSS_PreSci_digested (after purification and protease cleavage) (bispecific antibody, the VL stays attached through the dsFv disulfide) heavy 1: not shown heavy 2: not shown GPSGGGGSGGGGSDIQMTQSPSSLSASVGDRVTITCKSSQSLLYTSSQKNYLAWYQQKPGKAPKLLIYWASTRESGVPSRFSGSGSGTDFTLTISSLQPEDFATYYCQQYYAYPWTFGCGTKVEIKR light: DIQMTQTTSSLSASLGDRVTISCRARQDISNYLNWYQRKPDGTVKLLIYYTSRLHSGVPSRFSGSGSGTDYSLTISNLEQEDIATYFCQQGNTFPWTFGGGTKLEIKRTVAAPSVFIFPPSDEQLKSGTASVVCLLNNFYPREAKVQWKVDNALQSGNSQESVTEQDSKDSTYSLSSTLTLSKADYEKHKVYACEVTHQGLSSPVTKSFNRGEC
7.05 nM | 0.000193 s⁻¹ | 27400 M⁻¹ s⁻¹ | – | – | – | – | – | Her3_MetSS_KHSS_FS2 (protease cleavage during expression) (bispecific antibody, As m1 but with furin site variant 2) heavy 1: not shown heavy 2: not shown SLGGGGSGGGGSDIQMTQSPSSLSASVGDRVTITCKSSQSLLYTSSQKNYLAWYQQKPGKAPKLLIYWASTRESGVPSRFSGSGSGTDFTLTISSLQPEDFATYYCQQYYAYPWTFGCGTKVEIKR light: DIQMTQTTSSLSASLGDRVTISCRARQDISNYLNWYQRKPDGTVKLLIYYTSRLHSGVPSRFSGSGSGTDYSLTISNLEQEDIATYFCQQGNTFPWTFGGGTKLEIKRTVAAPSVFIFPPSDEQLKSGTASVVCLLNNFYPREAKVQWKVDNALQSGNSQESVTEQDSKDSTYSLSSTLTLSKADYEKHKVYACEVTHQGLSSPVTKSFNRGEC
